Data: PMC2965237

B1: RGL13/17 (dsDNA)
DNA 1: GACGCTGCCGAATTCTGGCTTGCTAGGACATCTTTGCCCACGTTGACCC
DNA 2: GGGTCAACGTGGGCAAAGATGTCCTAGCAAGCCAGAATTCGGCAGCGTC

Tests used:
Experiment in all cases: EMSA
RdgC H222A = RdgC H222A (Escherichia coli, UniProt P36767 1-303, H222A)
RdgC E218R = RdgC E218R (Escherichia coli, UniProt P36767 1-303, E218R)
RdgC R118A = RdgC R118A (Escherichia coli, UniProt P36767 1-303, R118A)
RdgC R118C = RdgC R118C (Escherichia coli, UniProt P36767 1-303, R118C)
RdgC F120T K227A = RdgC F120T K227A (Escherichia coli, UniProt P36767 1-303, F120T;K227A)
RdgC Δfinger R118C = RdgC Δfinger R118C (Escherichia coli, UniProt P36767 1-303, P76G;L116T;R118C;del77-115)

Row | Binder | Kd (RdgC H222A) | Kd (RdgC E218R) | Kd (RdgC R118A) | Kd (RdgC R118C) | binding result (RdgC F120T K227A) | Kd (RdgC Δfinger R118C)
1 | B1 | 12 nM | 22 nM | 6 nM | 6 nM |  | 
2 | GACGCTGCCGAATTCTGGCTTGCTAGGACATCTTTGCCCACGTTGACCC (ssDNA) [RGL13] | 5 nM |  | 6 nM | 6 nM | no binding | ~6000 nM
